Here are results for two substances from paper PMC5240642.

The target in this experiment is FcγRIIIa F158 extracellular domain (UniProt P08637). The experiment in a line: SPR. On the technique in general: Surface plasmon resonance follows binding to a sensor surface in real time, without labels.
Sequence of UniProt P08637 (P08637 17-208): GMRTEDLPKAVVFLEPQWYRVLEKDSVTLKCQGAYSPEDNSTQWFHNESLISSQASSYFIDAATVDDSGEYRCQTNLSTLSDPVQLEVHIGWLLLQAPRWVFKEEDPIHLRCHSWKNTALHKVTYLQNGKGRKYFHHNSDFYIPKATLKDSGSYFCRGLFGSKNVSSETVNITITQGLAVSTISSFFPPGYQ

As a reminder, the Kd is a measure of binding affinity in units of concentration. In the case of “Humira® complexed with TNF homotrimer (2:1 molar ratio) (from UniProt P01375 77-233)”, the Kd stood at 6.9 nM.
Turning to “MSB11022 complexed with TNF homotrimer (2:1 molar ratio) (from UniProt P01375 77-233)”, the Kd worked out at 8 nM.
